What was measured:
[1] = biological target: Swedish mutant P13-P5′ peptide with P1′ aspartic acid replaced with a valine (D→V), P05067
[2] = biological target: Swedish mutant P13-P5′ peptide with P1′ aspartic acid replaced with a leucine (D→L), P05067
Swedish mutant P13-P5′ peptide with P1′ aspartic acid replaced with a leucine (D→L), P05067, sequence (P05067 whole entry, looked up, change not shown, tested part not stated): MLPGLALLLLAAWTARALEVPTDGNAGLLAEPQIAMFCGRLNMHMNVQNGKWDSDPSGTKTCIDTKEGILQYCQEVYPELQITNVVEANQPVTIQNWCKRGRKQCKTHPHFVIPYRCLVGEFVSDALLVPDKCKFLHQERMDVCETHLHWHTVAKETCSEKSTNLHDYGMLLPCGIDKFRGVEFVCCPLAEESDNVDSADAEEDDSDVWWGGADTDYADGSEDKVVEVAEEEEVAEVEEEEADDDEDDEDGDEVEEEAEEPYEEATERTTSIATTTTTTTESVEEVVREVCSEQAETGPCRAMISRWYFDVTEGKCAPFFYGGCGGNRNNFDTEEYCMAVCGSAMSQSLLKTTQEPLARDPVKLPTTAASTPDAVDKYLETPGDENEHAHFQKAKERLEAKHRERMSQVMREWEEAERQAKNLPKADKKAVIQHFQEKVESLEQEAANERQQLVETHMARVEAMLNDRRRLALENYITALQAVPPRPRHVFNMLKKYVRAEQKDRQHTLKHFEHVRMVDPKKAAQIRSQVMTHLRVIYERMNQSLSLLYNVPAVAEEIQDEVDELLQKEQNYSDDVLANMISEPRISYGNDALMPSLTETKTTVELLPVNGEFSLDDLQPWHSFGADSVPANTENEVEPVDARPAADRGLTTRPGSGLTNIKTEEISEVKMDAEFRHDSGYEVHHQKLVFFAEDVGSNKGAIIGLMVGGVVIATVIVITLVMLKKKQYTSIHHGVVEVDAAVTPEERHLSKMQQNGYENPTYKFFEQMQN

Swedish mutant P13-P5′ peptide with P1′ aspartic acid replaced with a valine (D→V), P05067, sequence (P05067 whole entry, looked up, change not shown, tested part not stated): as above

B1: naturally occurring β-secretase purified from human brain (protein)
chain: ETDEEPEEPGRRGSFVEMVDNLRGKSGQGYYVEMTVGSPPQTLNILVDTGSSNFAVGAAPHPFLHRYYQRQLSSTYRDLRKGVYVPYTQGKWEGELGTDLVSIPHGPNVTVRANIAAITESDKFFINGSNWEGILGLAYAEIARPDDSLEPFFDSLVKQTHVPNLFSLQLCGAGFPLNQSEVLASVGGSMIIGGIDHSLYTGSLWYTPIRREWYYEVIIVRVEINGQDLKMDCKEYNYDKSIVDSGTTNLRLPKKVFEAAVKSIKAASSTEKFPDGFWLGEQLVCWQAGTTPWNIFPVISLYLMGEVTNQSFRITILPQQYLRPVEDVATSQDDCYKFAISQSSTGTVMGAVIMEGFYVVFDRARKRIGFAVSACHVHDEFRTAAVEGPFVTLDMEDCGYNIPQTDESTLMTIAYVMAAICALFMLPLCLMVCQWRCLRCLRQQHDDFADDISLLK
substrate concentration dependence of hydrolysis by brain β-secretase [1]: show saturation at a lower concentration than the parent Swedish peptide | substrate concentration dependence of hydrolysis by brain β-secretase [2]: show saturation at a lower concentration than the parent Swedish peptide

— patent publication US7456007
